For orientation: Kd means the equilibrium constant for the complex coming apart.

Here are results for 18 molecules from patent US20230357424A1 (published 2023).

For assay [1], the target named is human CD45 D1-D4 (amino acids 194-578) with C-terminal 8xHis tag (human) (UniProt P08575). Briefly: SPR, Biacore T200, single cycle kinetics; IgG captured on Protein A chip, CD45 D1-D4 as analyte. (In SPR one partner is held on a chip, and binding of the other changes the refractive index at the surface.)
Assay [2] has the same target. Description: SPR, Biacore T200, single cycle kinetics; scFv-Fc captured on Protein A chip, CD45 D1-D4 as analyte.
For assay [3], the target named is T1, human CD45 D1-D4 (amino acids 194-578) with C-terminal 8xHis tag (human, UniProt P08575 194-578).
T1 construct: Made in house in expi293 cells; SPR analyte; also called D1-D4 region of human CD45RO
T1 sequence: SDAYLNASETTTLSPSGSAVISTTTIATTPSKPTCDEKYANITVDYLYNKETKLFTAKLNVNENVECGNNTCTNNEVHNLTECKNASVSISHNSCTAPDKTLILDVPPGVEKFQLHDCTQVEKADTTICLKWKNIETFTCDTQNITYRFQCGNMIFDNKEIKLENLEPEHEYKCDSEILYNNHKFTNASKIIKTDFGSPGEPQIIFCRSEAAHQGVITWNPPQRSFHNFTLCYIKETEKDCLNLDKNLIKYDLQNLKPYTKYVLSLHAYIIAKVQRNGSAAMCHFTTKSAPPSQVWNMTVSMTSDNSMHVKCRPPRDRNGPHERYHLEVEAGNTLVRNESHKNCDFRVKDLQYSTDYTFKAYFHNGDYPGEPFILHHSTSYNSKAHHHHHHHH
Briefly: SPR, Biacore T200, single cycle kinetics; VHH monomeric Fc fusion captured on Protein A chip, CD45 D1-D4 as analyte. On the procedure:
The yeast display system as described above was employed to domain map the VHH binding sites. For labeling, His-tagged VHH proteins were incubated with the yeast and detected using an anti-VHH antibody. Seven VHH clonotypes bound across all four domains of CD45RO, with clonotypes 3, 4, and 7 targeting the D1 and D2 domains, clonotype 10 binding the D3 domain, clonotypes 2, 6, and 8 interacting with the D4 domain (Table 3).
Affinities were determined using a Biacore T200 instrument by measuring Kon/Koff in single cycle kinetics mode. Hybridoma clones were either reformatted and expressed in the form of the parent IgG (gap8.3, 4B2, 9.4 as murine IgG2A, VHE as human IgG1), and scFvs were expressed as human IgG1 Fc fusions. For the anti-CD45 VHH, proteins were expressed as monomeric Fc fusions. […] Human CD45 D1-D4 was generated in house with a C-terminal 8×His tag (SEQ ID NO: 610) and expressed and purified from expi293 cells by standard Ni- and SEC chromatography methods. Kinetic affinity constants were calculated using the Biacore® T200 software package.

Assay [4] addresses T2, hCD45 D3 domain displayed on yeast as Aga2 fusion (human).
T2 construct: not shown: Aga2p anchor protein for yeast surface expression
T2 chain: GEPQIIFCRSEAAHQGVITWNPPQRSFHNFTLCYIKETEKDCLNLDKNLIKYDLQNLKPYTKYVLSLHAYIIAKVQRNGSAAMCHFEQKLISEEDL
Briefly: epitope mapping (yeast display) and affinity studies; grade in column Notes. On the procedure:
(§1) CD45 domains described in FIG. 2 were fused to the C-term of Aga2 with an N-term FLAG and C-term c-Myc tag. Yeast constructs were expressed on the surface of yeast (S. cervisiae ATCC strain YVH10). Yeast were grown overnight at 30C in synthetic selective media SD-SCAA, then induced again overnight at 20° C. in SG-SCAA. Yeast were incubated with individual a-CD45 antibodies or a-CD45 VHH for 60 minutes on ice, washed, and incubated with anti-mouse/anti-human Fc or anti-VHH Alexa647 secondary antibody as well as an anti-FLAG or anti-c-Myc Alexa488 secondary antibody. Labeled yeast were analyzed by flow cytometry on a Beckman Coulter Cytoflex® and analyzed using the FlowJo® software package.
(§2) The results of the epitope mapping of the VHHs described above conducted in substantial accordance with the teaching of Example 3 and the affinity measurements conducted in substantial accordance with the teaching of Example 4 above are summarized in the following Table 7 and the sequences of the VHHs and corresponding CDRs are provide in Table 4 above: […]

Assay [5] concerns the target T3, hCD45 D4 domain displayed on yeast as Aga2 fusion (human, UniProt P08575 479-571).
T3 construct: not shown: Aga2p anchor protein for yeast surface expression
T3 sequence: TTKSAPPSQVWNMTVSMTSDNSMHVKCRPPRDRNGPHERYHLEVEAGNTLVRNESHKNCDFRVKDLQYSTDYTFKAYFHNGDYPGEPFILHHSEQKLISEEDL
The description is as above. As for the experimental part: as §1, §2

Assay [6] addresses T4, hCD45 D1 domain displayed on yeast as Aga2 fusion (human).
T4 construct: not shown: Aga2p anchor protein for yeast surface expression
T4 chain: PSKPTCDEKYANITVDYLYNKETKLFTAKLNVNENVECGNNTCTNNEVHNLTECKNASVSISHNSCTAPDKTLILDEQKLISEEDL
The description is as above. As for the experimental part: as §1, §2

For the molecule “9.4 anti-CD45 antibody, recombinant mouse IgG2a”, the Kd in assay [1] is 2.4 nM. On to “9.4 scFv linked to a human IgG1 Fc domain”, for which, in assay [2], the Kd was 18 nM.

B1: 4B2 anti-CD45 antibody, recombinant mouse IgG2a (antibody, from another filing, V domains shown)
VH: GVQLQESGAELARPGASVKMSCKASGYTFTSYTMQWVKQRPGQGLEWIGYINPSSGYIKYNQKFKDKVTLTADKSSTTAYMQLSRLTSEDSAVYYCARRGSYFFDFWGQGTSVTVSS
VL: DIVITQDELSNPVTSGESVSISCRSSKSLLYKDGKTYLNWFLQRPGQSPQLLIYLMSTRASGVSDRFSGSGSGTDFTLEISRVKAEDVGVYYCQQLVEYPFTFGGGTKLEVK
As for B1, the Kd in assay [1] came to 17 nM.

B2: 4B2 scFv linked to a human IgG1 Fc domain (scFv, from another filing, V domains shown)
VH: GVQLQESGAELARPGASVKMSCKASGYTFTSYTMQWVKQRPGQGLEWIGYINPSSGYIKYNQKFKDKVTLTADKSSTTAYMQLSRLTSEDSAVYYCARRGSYFFDFWGQGTSVTVSS
VL: DIVITQDELSNPVTSGESVSISCRSSKSLLYKDGKTYLNWFLQRPGQSPQLLIYLMSTRASGVSDRFSGSGSGTDFTLEISRVKAEDVGVYYCQQLVEYPFTFGGGTKLEVK
B2 registered a Kd in assay [2] of 12 nM.

B3: 1A10 VHH monomeric Fc fusion (Fc fusion)
VHH: QVQLQAFGGGLVQAGGSLGLSCSASGTIFNLDYMGWYRQALGKQRELVATITSDGRTNYADSVKGRFTIFRDGAKNAILMQMNSLKPEDTAVYYCKAYLSGRSDYWGQGTQVTVSS
notes: Clonotype 10; Construct used for SPR; not shown: monomeric Fc tag
Turning to B3, binding in assay [3] was characterised by a dissociation constant (Kd) of 32 nM.

B4: 1A10 VHH, His-tagged (VHH)
VHH: QVQLQAFGGGLVQAGGSLGLSCSASGTIFNLDYMGWYRQALGKQRELVATITSDGRTNYADSVKGRFTIFRDGAKNAILMQMNSLKPEDTAVYYCKAYLSGRSDYWGQGTQVTVSS
notes: Clonotype 10; not shown: His tag
With B4, the binding result in assay [4] is listed as “binds”.

B5: 1D6 VHH monomeric Fc fusion (Fc fusion)
VHH: QVQLQESGGGSVQAGGSLGLFCSASGTIFNIDVMGWYRQAPGKQRELVATITSDGRTNYADSVKGRFTISRDGAKNAVHVQMNSLKPEDTAVYYCKAYLSGRSDYWGQGTQVTVSS
notes: as for B3
B5 had a Kd in assay [3] of 522 nM.

B6: 1D6 VHH, His-tagged (VHH)
VHH: QVQLQESGGGSVQAGGSLGLFCSASGTIFNIDVMGWYRQAPGKQRELVATITSDGRTNYADSVKGRFTISRDGAKNAVHVQMNSLKPEDTAVYYCKAYLSGRSDYWGQGTQVTVSS
notes: as for B4
As to B6, in assay [4], the binding result was “binds”.

B7: 2D6 VHH, His-tagged (VHH)
VHH: QVQLQESGGGLVQAGASLRLSCAASGRTFSSFMGWFRQAPGKERKFVATINWNGGATGYADSVKGRFTISRDNAKNTLYLQMNSLKPEDTAVYYCAAARTGSAYYTSSDAGEYNYWGQGTQVTVSS
notes: Clonotype 6; not shown: His tag
For the molecule B7, the binding result in assay [5] was “binds”.

B8: 1E4 VHH monomeric Fc fusion (Fc fusion)
VHH: QVQLQESGGGLVQPGGSLRLSCAASGGTFSDYGMGWFRQAPGKEREFVSSISWSGNSVYYAGAVRGRFTISRDNAKNTVYLQMNSLQPEDTAVYYCAASSTWNNNDPTEYEYWGQGTLVTVSS
notes: Clonotype 3; Construct used for SPR; not shown: monomeric Fc tag
The molecule B8 registered a Kd in assay [3] of 299 nM.

B9: 2G4 VHH monomeric Fc fusion (Fc fusion)
VHH: QVQLQEFGGGLVQAGGSLRLSCAASGSISRINAMGWYRQAPGKQRELVAVITSGGSTHYADSVKGRFTISRDNAKNTLYLQMNSLKPEDTAVYYCNGRRKTTGWGSLREWEGSRDPDEYNYWGQGTLVTVSS
notes: Clonotype 2; Construct used for SPR; not shown: monomeric Fc tag
As for B9, in assay [3], the affinity, expressed as Kd, was 8.3 nM.

B10: gap8.3 anti-CD45 antibody, recombinant mouse IgG2a (antibody, from another filing, V domains shown)
VH: EVQLQQSGPELVKTGASVKISCKASGYSFTGYFIHWVKQSHGKSLEWIGYISCYNGATSYNQKFKGKATFTVDTSSSTAYMQFNSVTSEDSAVYYCVRNYYGNLDAMDYWGQGTSVTVSS
VL: DIVMTQSHKFMSTSVGDRVSITCKASQDVSTAVAWYQQKPGQSPKILIYSASYRYTGVPDRFTGSGSGTDFTFTISSVQAEDLAVYYCQQHYSTPRTFGGGTKLEIK
Regarding B10, the Kd in assay [1] was found to be 21 nM.

B11: gap8.3 scFv linked to a human IgG1 Fc domain (scFv, from another filing, V domains shown)
VH: EVQLQQSGPELVKTGASVKISCKASGYSFTGYFIHWVKQSHGKSLEWIGYISCYNGATSYNQKFKGKATFTVDTSSSTAYMQFNSVTSEDSAVYYCVRNYYGNLDAMDYWGQGTSVTVSS
VL: DIVMTQSHKFMSTSVGDRVSITCKASQDVSTAVAWYQQKPGQSPKILIYSASYRYTGVPDRFTGSGSGTDFTFTISSVQAEDLAVYYCQQHYSTPRTFGGGTKLEIK
Take B11: the Kd in assay [2] is 40 nM.

B12: 1G1 VHH monomeric Fc fusion (Fc fusion)
VHH: QVQLQASGGGLVQAGGSLRLSCAASGRTVSSDAMGWFRQAPGKEREFVAAINWNGASTYYGDSAQGRFTISRDNAKNTVYLQMNSLKSEDTAVYYCAASDWVVGGISLMNGAEYKYWGQGTLVTVSS
notes: Clonotype 7; Construct used for SPR; not shown: monomeric Fc tag
In assay [3], B12 showed a Kd of 28 nM.

B13: 1G1 VHH, His-tagged (VHH)
VHH: QVQLQASGGGLVQAGGSLRLSCAASGRTVSSDAMGWFRQAPGKEREFVAAINWNGASTYYGDSAQGRFTISRDNAKNTVYLQMNSLKSEDTAVYYCAASDWVVGGISLMNGAEYKYWGQGTLVTVSS
notes: Clonotype 7; not shown: His tag
B13: the binding result in assay [6] is given as “binds”.

B14: 2F8 VHH monomeric Fc fusion (Fc fusion)
VHH: QVQLQQFGGGLVQAGGSLRLSCAASGRTFSGYAMGWFRQAPGKEREFVAAINWSGGSTYYADSVKGRYTISRDNAKNTGYLQMNSLKSEDTAVYYCAASDWVVGGISLMNGAEYKYWGQGTLVTVSS
notes: as for B12
In turn, B14 registered a Kd in assay [3] of 69 nM.

B15: 2H7 VHH monomeric Fc fusion (Fc fusion)
VHH: QVQLQESGGGLVQAGGSLRLSCAASGRTFSTHAMGWFRQAPGKEREFVAAIAWSGGSTYYADSVKGRFTISRDISKNTIYLQMNSLKPEDTALYYCAATNGGAWHYHERYFGSWGQGTLVTVSS
notes: Clonotype 8; Construct used for SPR; not shown: monomeric Fc tag
B15: the Kd in assay [3] worked out at 0.88 nM.

B16: 2C5 VHH monomeric Fc fusion (Fc fusion)
VHH: QVQLQEFGGGLVQAGASLRLSCAASGGTFSYFMGWFRQAPGKEREFVATINRNGGATGYADSVKGRFTISRDNAKNTLYLQMDSVTPEDTAVYYCAAARESSVYYTSTDPAEYGYWGQGTQVTVSS
notes: Clonotype 6; Construct used for SPR; not shown: monomeric Fc tag
In the case of B16, in assay [3], the affinity, expressed as Kd, was 1.4 nM.
